± gives the standard deviation.
Assay: protein stability index of a GFP-peptide fusion (GPS, HEK-293T) (PSI 1-6); higher = more stable
Details: c terminus: a fixed tail appended
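Further: 24-mer peptide tiles fused after GFP, lentivirally expressed, FACS-sorted into six equal bins by GFP/DsRed ratio, decoded by Illumina sequencing, PSI is the read-weighted mean bin number.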

Sequence: KQSFLDGGKGHHLPSENLGKEPLD [TOR1AIP2]
- protein stability index (treatment: DMSO): 5.13 ± 0.11
- protein stability index (treatment: MLN4924 1 uM, 8 h): 5.01 ± 0.21

Sequence: PNIQEAVEGAMHIQECVPEDLELK [CRYL1]
- protein stability index (treatment: DMSO): 5.49 ± 0.13
- protein stability index (treatment: MLN4924 1 uM, 8 h): 5.57 ± 0.19

Sequence: NHGFEVLYHSVKQGPISTKELADF [FCHO1]
- protein stability index (treatment: DMSO): 3.4 ± 0.15
- protein stability index (treatment: MLN4924 1 uM, 8 h): 3.29 ± 0.17

Sequence: TLLVCGKKAYDYFQAKKIPIVSSL [PDZK1]
- protein stability index (treatment: DMSO): 2.6 ± 0.75
- protein stability index (treatment: MLN4924 1 uM, 8 h): 2.58 ± 0.13

Sequence: TLPVLEASSWKKQVSHDFLETRFK [FBXO34]
- protein stability index (treatment: DMSO): 3.16 ± 0.66
- protein stability index (treatment: MLN4924 1 uM, 8 h): 3.1 ± 0.41

Sequence: SERDSEAAKQNHVTADDFVQTSVI [EHMT1]
- protein stability index (treatment: DMSO): 5.34 ± 0.45
- protein stability index (treatment: MLN4924 1 uM, 8 h): 5.35 ± 0.34

Sequence: DYVQLENQWETPPEDLQTDLAKLV [ZNF449]
- protein stability index (treatment: DMSO): 4.19 ± 0.3
- protein stability index (treatment: MLN4924 1 uM, 8 h): 4.31 ± 0.059

Sequence: FFLFIGVILFSSAVYFAEADDPTS [KCNA3]
- protein stability index (treatment: DMSO): 2.8 ± 0.1
- protein stability index (treatment: MLN4924 1 uM, 8 h): 3.09 ± 0.2

Sequence: FKAYIKIYQGEDLPHPKSMLQATA [ATL3]
- protein stability index (treatment: DMSO): 2.78 ± 0.35
- protein stability index (treatment: MLN4924 1 uM, 8 h): 2.5 ± 0.57

Sequence: ASDIMEPNLTYVYPHTRIQSLVSI [CLCN6]
- protein stability index (treatment: DMSO): 2.38 ± 0.49
- protein stability index (treatment: MLN4924 1 uM, 8 h): 2.34 ± 0.38

Sequence: GKIIGGMWRDLTDEEKQEYLNEYE [SMARCE1]
- protein stability index (treatment: DMSO): 4.56 ± 0.14
- protein stability index (treatment: MLN4924 1 uM, 8 h): 4.64 ± 0.27

Sequence: ICLEMFTKPVVILPCQHNLCRKCA [TRIM63]
- protein stability index (treatment: DMSO): 2.2 ± 0.054
- protein stability index (treatment: MLN4924 1 uM, 8 h): 2.41 ± 0.13

Sequence: SSAGSAEQTAPGDSTGYMEVSLDS [EHMT1]
- protein stability index (treatment: DMSO): 5.29 ± 0.35
- protein stability index (treatment: MLN4924 1 uM, 8 h): 5.33 ± 0.12

Sequence: HGDYFRLLLPGIYTVSATAPGYDP [CPN1]
- protein stability index (treatment: DMSO): 2.78 ± 0.71
- protein stability index (treatment: MLN4924 1 uM, 8 h): 2.48 ± 0.48

Sequence: VVLKLFLSFSGSDVQNKLKESAQC [SNX8]
- protein stability index (treatment: DMSO): 2.8 ± 0.76
- protein stability index (treatment: MLN4924 1 uM, 8 h): 2.92 ± 0.52

Sequence: PNQAMVVAAAGDACPPQHVPPKDS [TBC1D10A]
- protein stability index (treatment: DMSO): 5.5 ± 0.14
- protein stability index (treatment: MLN4924 1 uM, 8 h): 5.37 ± 0.12

Sequence: LSAGSPPVPPGWNPNSSSGKGSGG [DLX1]
- protein stability index (treatment: DMSO): 4.86 ± 0.24
- protein stability index (treatment: MLN4924 1 uM, 8 h): 4.72 ± 0.1

Sequence: QIVLLKSSAIEVIMLRSNESFTMD [VDR]
- protein stability index (treatment: DMSO): 2.6 ± 0.7
- protein stability index (treatment: MLN4924 1 uM, 8 h): 2.44 ± 0.4

Sequence: KIMIIICCVILGIVIASTVGGIFA [STX1A]
- protein stability index (treatment: DMSO): 2.04 ± 0.38
- protein stability index (treatment: MLN4924 1 uM, 8 h): 2.23 ± 0.41

Sequence: MGQKVTGGIKTVDMRDPTYRPLKQ [SPSB1]
- protein stability index (treatment: DMSO): 3.89 ± 0.22
- protein stability index (treatment: MLN4924 1 uM, 8 h): 4.01 ± 0.28

Sequence: QLRATAGSLILPPGPGGTMKRHSS [FCHO1]
- protein stability index (treatment: DMSO): 3.87 ± 0.16
- protein stability index (treatment: MLN4924 1 uM, 8 h): 3.91 ± 0.33

Sequence: GTAGPLALARDLLSETADPFFVLN [GMPPB]
- protein stability index (treatment: DMSO): 3.18 ± 0.31
- protein stability index (treatment: MLN4924 1 uM, 8 h): 3.23 ± 0.27

Sequence: MKLFDSICNNKWFTDTSIILFLNK [GNAI1]
- protein stability index (treatment: DMSO): 2.6 ± 0.59
- protein stability index (treatment: MLN4924 1 uM, 8 h): 2.58 ± 0.59

Sequence: LHPLLSGRLGRWLRSTRFSGSLDR [PCDHGC5]
- protein stability index (treatment: DMSO): 2.46 ± 0.23
- protein stability index (treatment: MLN4924 1 uM, 8 h): 2.45 ± 0.54

Sequence: TPAKSLDKFIEDYLLPDTCFRMQI [OAS1]
- protein stability index (treatment: DMSO): 2.51 ± 0.51
- protein stability index (treatment: MLN4924 1 uM, 8 h): 2.65 ± 0.48

Sequence: SVVLRRARGGAVSARYVLPDEAAR [DUSP5]
- protein stability index (treatment: DMSO): 3.56 ± 0.33
- protein stability index (treatment: MLN4924 1 uM, 8 h): 3.55 ± 0.26

Sequence: AAPGKQPGRGHTHAAQGGPLLCPG [ELOA2]
- protein stability index (treatment: DMSO): 4.09 ± 0.31
- protein stability index (treatment: MLN4924 1 uM, 8 h): 4.31 ± 0.26

Sequence: GPASRMDPESERALQAPHSPSKTD [PBXIP1]
- protein stability index (treatment: DMSO): 5.46 ± 0.24
- protein stability index (treatment: MLN4924 1 uM, 8 h): 5.34 ± 0.23

Sequence: NTLEGKKPGNNEGSGAPSPLSKSS [SNAP91]
- protein stability index (treatment: DMSO): 5.41 ± 0.23
- protein stability index (treatment: MLN4924 1 uM, 8 h): 5.35 ± 0.28

Sequence: SDARVVKDMATGKSKGYGFVSFFN [TIA1]
- protein stability index (treatment: DMSO): 2.79 ± 0.35
- protein stability index (treatment: MLN4924 1 uM, 8 h): 2.77 ± 0.16

Sequence: RSLILDDRGLRGFPKNRVLEGVID [TRIM9]
- protein stability index (treatment: DMSO): 3.16 ± 0.2
- protein stability index (treatment: MLN4924 1 uM, 8 h): 3.47 ± 0.41

Sequence: LGRSIVSSPQGKSGPEAARAGGWV [PKD2L1]
- protein stability index (treatment: DMSO): 3.45 ± 0.2
- protein stability index (treatment: MLN4924 1 uM, 8 h): 3.83 ± 0.36

Sequence: YQAFRECTLETTVHASGWNKILVP [BCL2L13]
- protein stability index (treatment: DMSO): 1.93 ± 0.33
- protein stability index (treatment: MLN4924 1 uM, 8 h): 2.32 ± 0.22

Sequence: IRLQAELEEGENPVPAFQSDGTDE [SMG5]
- protein stability index (treatment: DMSO): 5.27 ± 0.14
- protein stability index (treatment: MLN4924 1 uM, 8 h): 5.12 ± 0.23

Sequence: TLASVPPAATFGADDLVLTLSNPQ [ELF3]
- protein stability index (treatment: DMSO): 4.28 ± 0.21
- protein stability index (treatment: MLN4924 1 uM, 8 h): 4.25 ± 0.2

Sequence: WGEMTLSLFSLLIAAAVYIMDTVG [SLC19A2]
- protein stability index (treatment: DMSO): 2.51 ± 0.44
- protein stability index (treatment: MLN4924 1 uM, 8 h): 2.46 ± 0.31

Sequence: IGAAPFSGRRNWCSYVVTRTISCH [EMID1]
- protein stability index (treatment: DMSO): 2.23 ± 0.27
- protein stability index (treatment: MLN4924 1 uM, 8 h): 2.07 ± 0.23

Sequence: MYILSPAVLRRIQLQPTSIEKEVF [GMPPB]
- protein stability index (treatment: DMSO): 2.29 ± 0.42
- protein stability index (treatment: MLN4924 1 uM, 8 h): 2.24 ± 0.41

Sequence: GGSSGKGTTLRGRSDADLVVFLSP [OAS1]
- protein stability index (treatment: DMSO): 2.73 ± 0.17
- protein stability index (treatment: MLN4924 1 uM, 8 h): 3.07 ± 0.35

Sequence: LKDTYASLGKTNVKDDELDAMLKE [MYL5]
- protein stability index (treatment: DMSO): 5.28 ± 0.21
- protein stability index (treatment: MLN4924 1 uM, 8 h): 5.35 ± 0.2

Sequence: VCEQCLQILYESCPKYKFISCPTC [RNF208]
- protein stability index (treatment: DMSO): 4.06 ± 0.29
- protein stability index (treatment: MLN4924 1 uM, 8 h): 4.09 ± 0.5

Sequence: SDTYRCEERSPSFGEDYYGPSRSR [CLK3]
- protein stability index (treatment: DMSO): 4.47 ± 0.12
- protein stability index (treatment: MLN4924 1 uM, 8 h): 4.52 ± 0.2

Sequence: RCINDPYLEVLETMDNKKGRRYEA [CLCN6]
- protein stability index (treatment: DMSO): 3.82 ± 0.15
- protein stability index (treatment: MLN4924 1 uM, 8 h): 4.03 ± 0.32

Sequence: TVMILPVTHTEISPEQQFDRSVQR [TMEM175]
- protein stability index (treatment: DMSO): 3.64 ± 0.28
- protein stability index (treatment: MLN4924 1 uM, 8 h): 3.76 ± 0.16

Sequence: WVCFIYTIMSLASLLFVVMFIPET [SLC2A12]
- protein stability index (treatment: DMSO): 3.06 ± 0.83
- protein stability index (treatment: MLN4924 1 uM, 8 h): 2.74 ± 0.52

Source: the supplement of paper PMC10567573
